{
  "source": "patent US12391751B2",
  "about": "“Antibody against advanced glycation end products and use thereof” (Bloom Technology Corporation, priority 2018, dated 2025)",
  "molecules": {"B1": {"name": "SJ-5: mouse monoclonal antibody raised against GAL13-MSA; heavy-chain variable region SEQ ID NO 4, light-chain variable region SEQ ID NO 8 (antibody, listed as Mus musculus, V domains shown)", "VH": "EVMLVESGGRLVKPGGSLKLSCAASGFTFSSYGMSWVRQTPEKRLEWVATISGGGSYTYYPDSVKGRFTISRDNVKNNLYLQMSSLRSEDTALYYCARRGAYGDYGWFAYWGQGTLVTVSA", "VL": "DIVLTQSPATLSVTPGDSVSLSCRASQSINNNLHWYQQKSHESPRLLIKCASQSISGIPSRFSGSGSGTDFTLSINSVETEDFGMYFCQQSNSWPLTFGAGTKLELK"}, "B2": {"name": "PB-1: mouse monoclonal antibody raised against A-peak-BSA; heavy-chain variable region SEQ ID NO 18, light-chain variable region SEQ ID NO 22 (antibody, listed as Mus musculus, V domains shown)", "VH": "EVRLQQSGPELVKPGTSVKISCKASGYSFTGYYMHWVKQSPVKSLEWIGRIIPYNGATSYNQNFKDKASLTVDKSSRTAYMDLHSLTSEDSAVYYCARSRYYGRAPYYFDYWGQGTTLTVSS", "VL": "DVVVTQTPLSLPVSLGDQASISCRSSQSIVHSNGNTYLEWYLQKPGQSPKLLIYKVSNRFSGVPDRISGSGSGTDFTLKISRVEAGDLGVYSCFQGSHVPFTFGSGTKLEIK"}},
  "key": {"[1]": {"assay": "Reactivity of SJ-5 with GLAP by competitive ELISA (Example 13)", "assay_type": "binding", "conditions": "immobilized Glycer-AGEs-BSA", "description": "A solution of BSA containing AGEs derived from glyceraldehyde (stock solution: 10 mg/mL PBS solution) prepared into 1 μg/mL in a coating solution was added at 100 μL/well to a 96-well microtiter plate (COSTAR) and incubated overnight at 4° C.\nEach well after the immobilization treatment was washed three times with a washing solution (300 μL), and a blocking solution (200 μL) was added thereto and left at room temperature for 1 hour.\nGAL13 (prepared in Example 2), GLAP (prepared in Example 12), and Z-Lys-OH (Tokyo Chemical Industry Co., Ltd.) were each dissolved in a phosphate buffer solution (0.2 M, pH 7.4) to prepare a 20 mg/mL solution. Sample solutions of 2-fold dilution series from 0.0063 to 2 mg/mL (6 points) were further prepared by dilution with a diluting solution. A POD-labeled novel monoclonal antibody (SJ-5) solution was diluted 16,000-fold with a diluting solution containing BSA (1 mg/mL, FUJIFILM Wako Pure Chemical Corp.) to prepare a POD-labeled SJ-5 antibody dilution solution. […]\nAbsorbance was measured at a dominant wavelength of 450 nm and a sub-wavelength of 650 nm with a microplate reader (Cytation 5, BioTek Instrument Inc.), and the absorbance at the sub-wavelength was subtracted from the absorbance at the dominant wavelength."}, "[2]": {"system": "HUVEC (human umbilical vein endothelial cells)", "assay": "Neutralization test of vascular endothelial cell lumen formation inhibition (Example 14)", "assay_type": "cell-based", "conditions": "antibody pre-reacted with Glycer-AGEs-BSA; HUVEC, 8 hours", "description": "Matrigel matrix (Corning Inc.) was placed in a refrigerator and thawed overnight. The thawed Matrigel matrix was added at 300 μL/well to a 12-well plate (Corning Inc.) and hardened by still standing at 37° C. for 1 hour in a CO2 incubator (ESPEC Corp.).\n10 μL of Glycer-AGEs-BSA (10 mg/mL) prepared in Example 1 or 10 μL of control BSA (10 mg/mL), phosphate-buffered saline (PBS, FUJIFILM Wako Pure Chemical Corp.), and 90 μL of SJ-5 (10 mg/mL) or a control antibody (10 mg/mL) were added to a 1.5 mL tube (Watson) and left standing at room temperature for 10 minutes. Then, a supernatant was recovered by centrifugation at 14000 rpm for 15 minutes using a centrifuge (Thermo Fisher Scientific Inc.).\nHUVEC (human umbilical vein endothelial cells, National Institutes of Biomedical Innovation, Health and Nutrition, JCRB cell bank) was cultured in a 10 cm dish (Corning Inc.) using 10 mL of a medium for HUVEC (KAC Co., Ltd.).\nThe cultured HUVEC was washed with 10 mL of PBS. Then, 1 mL of trypsin-EDTA (FUJIFILM Wako Pure Chemical Corp.) was added thereto and left standing at room temperature for 3 minutes. […]\nAfter the centrifugation, the supernatant was discarded, and precipitated cells were resuspended by the addition of 1 mL of a medium for HUVEC. […] Then, the number of live cells was counted in Auto Cell Counter EVE (NanoEnTek Inc.). […]"}, "A-peak-BSA": {"target": "A-peak-BSA (Bos taurus, UniProt P02769)", "sequence (P02769 25-607)": "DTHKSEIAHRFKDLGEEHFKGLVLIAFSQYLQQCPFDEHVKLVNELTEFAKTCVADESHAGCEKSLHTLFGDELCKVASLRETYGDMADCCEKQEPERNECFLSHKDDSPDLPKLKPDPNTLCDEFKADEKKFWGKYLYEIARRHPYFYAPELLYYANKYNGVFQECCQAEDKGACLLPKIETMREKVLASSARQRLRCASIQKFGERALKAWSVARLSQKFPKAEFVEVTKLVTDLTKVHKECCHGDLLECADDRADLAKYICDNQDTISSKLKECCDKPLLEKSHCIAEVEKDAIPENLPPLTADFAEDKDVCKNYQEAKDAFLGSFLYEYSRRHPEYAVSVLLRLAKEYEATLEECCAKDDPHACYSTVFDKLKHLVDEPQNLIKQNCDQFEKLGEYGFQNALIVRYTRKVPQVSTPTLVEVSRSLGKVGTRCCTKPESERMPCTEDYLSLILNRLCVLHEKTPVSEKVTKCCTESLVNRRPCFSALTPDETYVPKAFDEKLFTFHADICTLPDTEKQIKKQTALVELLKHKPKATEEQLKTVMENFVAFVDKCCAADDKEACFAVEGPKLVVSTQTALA", "assay": "Suppression test of DAB oxidation of A-peak-BSA (Example 32)", "assay_type": "biochemical", "conditions": "PB-1 1.8 mg/mL; A-peak-BSA 2 mg/mL; white LED 3000 lux overnight", "description": "Diaminobenzidine (DAB, Dojindo Laboratories) was prepared into 5 mg/mL in a PBS solution. A-peak-BSA (2 mg/mL, PBS solution) was prepared in the same way as in Example 24. 10 μL of the DAB solution was added to a 0.6 mL microtube (Watson), and 100 μL of PBS, the PB-1 antibody (1.8 mg/mL), or a mouse IgG isotype control (Ctrl-mIgG, Thermo Fisher Scientific Inc.) was further added thereto. After stirring with a vortex mixer, 10 μL of the A-peak-BSA solution was added thereto. These solutions were stirred with a vortex mixer and then irradiated overnight with white LED (3000 lux). The solutions thus irradiated with light were stirred with a vortex mixer, then spun down, and recovered at 100 μL/well into Violamo 96-well plate (AS ONE Corp.).\nAbsorbance at a wavelength of 460 nm was measured with a microplate reader (Cytation 5, BioTek Instrument Inc.) to detect oxidized DAB. The ordinate of the graph depicts a relative value to oxidized DAB detected in the antibody-untreated group (PBS addition group)."}},
  "data": [
    {"molecule": "B1", "values": [
      {"measurement": "recognition of GLAP", "setting": "[1]", "value": "does not recognize"},
      {"measurement": "neutralization of lumen formation inhibition by Glycer-AGEs-BSA", "setting": "[2]", "value": "neutralized"}
    ]},
    {"molecule": "B2", "values": [
      {"measurement": "oxidized DAB (absorbance at 460 nm) compared with PBS or Ctrl-mIgG treatment group", "setting": "A-peak-BSA", "value": "largely decreased"}
    ]}
  ]
}
